Source: patent US20240368668A1, “SUBSTRATES AND BIOMARKERS OF ADAMTS7” (The Broad Institute, Inc., priority 2021, published 2024)

Biological target: T1, mouse ADAMTS7 (Mus musculus, UniProt Q68SA9)
T1 construct: Full-length mouse Adamts7 1-1857 (Uniprot Q68SA9, WT or E373Q catalytic mutant); expressed in transfected cells; host or cells: Human Coronary Artery Smooth Muscle Cells (HCA-SMC, Lonza), adenovirus 50 MOI
T1 sequence (Q68SA9 221-1657): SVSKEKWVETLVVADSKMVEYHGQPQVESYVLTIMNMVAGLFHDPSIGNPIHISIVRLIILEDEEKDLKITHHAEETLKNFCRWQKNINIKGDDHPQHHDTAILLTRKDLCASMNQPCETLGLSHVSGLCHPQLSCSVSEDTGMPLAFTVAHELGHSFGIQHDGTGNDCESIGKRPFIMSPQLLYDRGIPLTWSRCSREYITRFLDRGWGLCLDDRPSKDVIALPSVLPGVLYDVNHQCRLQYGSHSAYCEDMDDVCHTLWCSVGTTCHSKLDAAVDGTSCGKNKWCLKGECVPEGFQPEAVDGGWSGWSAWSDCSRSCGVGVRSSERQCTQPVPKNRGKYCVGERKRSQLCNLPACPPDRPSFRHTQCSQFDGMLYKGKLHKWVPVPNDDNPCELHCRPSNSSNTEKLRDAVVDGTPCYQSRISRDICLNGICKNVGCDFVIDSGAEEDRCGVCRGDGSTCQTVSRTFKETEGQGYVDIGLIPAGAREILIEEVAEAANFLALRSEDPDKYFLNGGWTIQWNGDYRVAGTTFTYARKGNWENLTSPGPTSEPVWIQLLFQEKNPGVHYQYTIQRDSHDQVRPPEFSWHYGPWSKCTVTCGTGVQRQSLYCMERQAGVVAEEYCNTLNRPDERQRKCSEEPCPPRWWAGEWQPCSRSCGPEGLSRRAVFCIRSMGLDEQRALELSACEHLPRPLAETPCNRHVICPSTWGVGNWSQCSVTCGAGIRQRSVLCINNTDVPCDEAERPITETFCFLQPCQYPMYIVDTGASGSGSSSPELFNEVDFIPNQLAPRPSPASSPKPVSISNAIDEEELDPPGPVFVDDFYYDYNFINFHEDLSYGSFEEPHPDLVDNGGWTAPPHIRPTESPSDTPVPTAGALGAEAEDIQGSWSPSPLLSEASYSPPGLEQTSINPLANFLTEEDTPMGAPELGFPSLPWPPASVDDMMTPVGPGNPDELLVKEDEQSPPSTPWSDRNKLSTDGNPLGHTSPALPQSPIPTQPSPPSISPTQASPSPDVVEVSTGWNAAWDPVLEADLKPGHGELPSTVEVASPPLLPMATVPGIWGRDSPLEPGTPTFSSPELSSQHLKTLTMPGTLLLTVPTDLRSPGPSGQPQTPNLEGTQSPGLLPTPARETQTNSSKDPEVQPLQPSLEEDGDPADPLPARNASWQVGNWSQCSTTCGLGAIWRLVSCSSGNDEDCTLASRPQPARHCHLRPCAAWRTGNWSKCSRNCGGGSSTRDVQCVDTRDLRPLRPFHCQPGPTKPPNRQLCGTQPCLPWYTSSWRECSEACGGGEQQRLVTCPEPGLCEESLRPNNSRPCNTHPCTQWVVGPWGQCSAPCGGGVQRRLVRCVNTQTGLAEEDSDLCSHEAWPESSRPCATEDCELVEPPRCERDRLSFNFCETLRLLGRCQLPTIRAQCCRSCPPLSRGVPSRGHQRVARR
Test: TMT10 TAILS N-terminomics, SMC2 experiment (process replicates, trypsin/AspN digest)
Type: cell-based
Settings: for logFC.mWT.over.Luc: SMC2_TAILS HC, log fold change of N-terminal peptide, Ad-mADAMTS7 WT over Luc
Method in brief: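 Full-length mouse ADAMTS7 (WT or E373Q mutant, C-terminal 3xFLAG) or luciferase was transduced via adenovirus, 50 MOI, into HCA-SMC (SMC1, SMC2) or HUVEC. SMC1: pooled media, technical triplicates 400 ug; SMC2: process triplicates 300 ug; HUVEC: process triplicates 200 ug, bFGF2 10 ng/ml.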

Row | Substance | logFC.mWT.over.Luc | logFC.mWT.over.Lux (log fold change, ADAMTS7 WT over luciferase)
1 | VIM_322 (QVQSLTCEV; listed as Homo sapiens) | 1.01 | –
2 | VIM_433 (LVDTHSKR; listed as Homo sapiens) | – | 2.91
3 | ZSCAN4_25 (FQQSQGPAVQR; listed as Homo sapiens) | 2.79 | –
